# According to patent US20150087577A1 (POLYPHOR, published 2015):
# *1 amine or outer side, *2 acyl side, *3 side chain or, on linkers, in order; H or OH if unused. Bridges are numbered along the chain shown (N, C = ends). [ ]: non-standard residue; d: D form. IPegDab = L-2-amino-4{2-[2-(2-methoxy-ethoxy)-ethoxy]-acetylamino}-butyric acid, COCCOCCOCC(=O)NCC[C@H](N[*:1])C(=O)[*:2]; N(2-Aminoethyl)Gly = O=C(CN(CCN[*:3])[*:1])[*:2]; 2Nal = N[C@@H](Cc1ccc2ccccc2c1)C(=O)O; Cit = NC(=O)NCCC[C@H](N)C(=O)O; Dab = NCC[C@H](N)C(=O)O
# Molecular target: human CXCR4 (human, UniProt P61073 1-352)
# Sequence (P61073 whole entry): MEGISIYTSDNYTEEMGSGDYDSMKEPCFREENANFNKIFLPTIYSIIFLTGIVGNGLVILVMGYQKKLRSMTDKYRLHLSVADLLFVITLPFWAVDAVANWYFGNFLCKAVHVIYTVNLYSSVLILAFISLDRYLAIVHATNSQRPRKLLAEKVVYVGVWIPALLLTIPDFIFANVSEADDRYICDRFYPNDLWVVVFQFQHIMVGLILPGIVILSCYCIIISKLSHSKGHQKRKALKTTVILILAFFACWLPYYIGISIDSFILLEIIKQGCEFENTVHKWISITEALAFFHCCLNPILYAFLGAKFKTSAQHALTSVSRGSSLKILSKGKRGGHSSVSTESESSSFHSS
# Experiment: cell-based or functional assay
IC50 (nM) Ca2+ assay (method 2),IC50 (nM) Ca2+ assay (method 1),Binder
0.38 nM,–,cyclo(YRTCRG[dP]RRYCYQK[dP]P) (disulfide 4-11; SMILES C[C@@H](O)[C@@H]1NC(=O)[C@H](CCCNC(=N)N)NC(=O)[C@H](Cc2ccc(O)cc2)NC(=O)[C@@H]2CCCN2C(=O)[C@H]2CCCN2C(=O)[C@H](CCCCN)NC(=O)[C@H](CCC(N)=O)NC(=O)[C@H](Cc2ccc(O)cc2)NC(=O)[C@@H]2CSSC[C@H](NC1=O)C(=O)N[C@@H](CCCNC(=N)N)C(=O)NCC(=O)N1CCC[C@@H]1C(=O)N[C@@H](CCCNC(=N)N)C(=O)N[C@@H](CCCNC(=N)N)C(=O)N[C@@H](Cc1ccc(O)cc1)C(=O)N2) [Example 145]
0.24 nM,–,cyclo(YRTCRG[dP]RRYCY[Cit]K[dP]P) (disulfide 4-11; SMILES C[C@@H](O)[C@@H]1NC(=O)[C@H](CCCNC(=N)N)NC(=O)[C@H](Cc2ccc(O)cc2)NC(=O)[C@@H]2CCCN2C(=O)[C@H]2CCCN2C(=O)[C@H](CCCCN)NC(=O)[C@H](CCCNC(N)=O)NC(=O)[C@H](Cc2ccc(O)cc2)NC(=O)[C@@H]2CSSC[C@H](NC1=O)C(=O)N[C@@H](CCCNC(=N)N)C(=O)NCC(=O)N1CCC[C@@H]1C(=O)N[C@@H](CCCNC(=N)N)C(=O)N[C@@H](CCCNC(=N)N)C(=O)N[C@@H](Cc1ccc(O)cc1)C(=O)N2) [Example 146]
0.65 nM,–,cyclo(YRYCRG[dP]RRYCYQK[dP]P) (disulfide 4-11; SMILES N=C(N)NCCC[C@@H]1NC(=O)[C@@H]2CSSC[C@H](NC(=O)[C@H](Cc3ccc(O)cc3)NC(=O)[C@H](CCCNC(=N)N)NC(=O)[C@H](CCCNC(=N)N)NC(=O)[C@H]3CCCN3C(=O)CNC1=O)C(=O)N[C@@H](Cc1ccc(O)cc1)C(=O)N[C@@H](CCC(N)=O)C(=O)N[C@@H](CCCCN)C(=O)N1CCC[C@@H]1C(=O)N1CCC[C@H]1C(=O)N[C@@H](Cc1ccc(O)cc1)C(=O)N[C@@H](CCCNC(=N)N)C(=O)N[C@@H](Cc1ccc(O)cc1)C(=O)N2) [Example 148]
0.17 nM,–,cyclo(YRICRG[dP]RRYCYQK[dP]P) (disulfide 4-11; SMILES CC[C@H](C)[C@@H]1NC(=O)[C@H](CCCNC(=N)N)NC(=O)[C@H](Cc2ccc(O)cc2)NC(=O)[C@@H]2CCCN2C(=O)[C@H]2CCCN2C(=O)[C@H](CCCCN)NC(=O)[C@H](CCC(N)=O)NC(=O)[C@H](Cc2ccc(O)cc2)NC(=O)[C@@H]2CSSC[C@H](NC1=O)C(=O)N[C@@H](CCCNC(=N)N)C(=O)NCC(=O)N1CCC[C@@H]1C(=O)N[C@@H](CCCNC(=N)N)C(=O)N[C@@H](CCCNC(=N)N)C(=O)N[C@@H](Cc1ccc(O)cc1)C(=O)N2) [Example 147]

# Further lines, the binder ahead of its results:
Binder,IC50 (nM) Ca2+ assay (method 2),IC50 (nM) Ca2+ assay (method 1)
cyclo(YR[Cit]C[N(2-Aminoethyl)Gly]G[dP]RR[2Nal]CY[Cit]K[dP]P) (disulfide 4-11; SMILES N=C(N)NCCC[C@@H]1NC(=O)[C@H](CCCNC(=N)N)NC(=O)[C@H]2CCCN2C(=O)CNC(=O)CN(CCN)C(=O)[C@@H]2CSSC[C@H](NC(=O)[C@H](Cc3ccc4ccccc4c3)NC1=O)C(=O)N[C@@H](Cc1ccc(O)cc1)C(=O)N[C@@H](CCCNC(N)=O)C(=O)N[C@@H](CCCCN)C(=O)N1CCC[C@@H]1C(=O)N1CCC[C@H]1C(=O)N[C@@H](Cc1ccc(O)cc1)C(=O)N[C@@H](CCCNC(=N)N)C(=O)N[C@@H](CCCNC(N)=O)C(=O)N2) [Example 138],63 nM,–
cyclo(YR[Cit]CRG[dP][Cit]RWCY[Cit]K[dP]P) (disulfide 4-11; SMILES N=C(N)NCCC[C@@H]1NC(=O)[C@@H]2CSSC[C@H](NC(=O)[C@H](Cc3c[nH]c4ccccc34)NC(=O)[C@H](CCCNC(=N)N)NC(=O)[C@H](CCCNC(N)=O)NC(=O)[C@H]3CCCN3C(=O)CNC1=O)C(=O)N[C@@H](Cc1ccc(O)cc1)C(=O)N[C@@H](CCCNC(N)=O)C(=O)N[C@@H](CCCCN)C(=O)N1CCC[C@@H]1C(=O)N1CCC[C@H]1C(=O)N[C@@H](Cc1ccc(O)cc1)C(=O)N[C@@H](CCCNC(=N)N)C(=O)N[C@@H](CCCNC(N)=O)C(=O)N2) [Example 136],4.1 nM,–
cyclo(YR[Cit]VR[Cit][dP]RR[2Nal]VY[Cit]K[dP]P) (SMILES CC(C)[C@@H]1NC(=O)[C@H](Cc2ccc3ccccc3c2)NC(=O)[C@H](CCCNC(=N)N)NC(=O)[C@H](CCCNC(=N)N)NC(=O)[C@H]2CCCN2C(=O)[C@H](CCCNC(N)=O)NC(=O)[C@H](CCCNC(=N)N)NC(=O)[C@H](C(C)C)NC(=O)[C@H](CCCNC(N)=O)NC(=O)[C@H](CCCNC(=N)N)NC(=O)[C@H](Cc2ccc(O)cc2)NC(=O)[C@@H]2CCCN2C(=O)[C@H]2CCCN2C(=O)[C@H](CCCCN)NC(=O)[C@H](CCCNC(N)=O)NC(=O)[C@H](Cc2ccc(O)cc2)NC1=O) [Example 25],–,1000 nM
cyclo(YR[Cit]CRG[dP]HRWCY[Cit]K[dP]P) (disulfide 4-11; SMILES N=C(N)NCCC[C@@H]1NC(=O)[C@@H]2CSSC[C@H](NC(=O)[C@H](Cc3c[nH]c4ccccc34)NC(=O)[C@H](CCCNC(=N)N)NC(=O)[C@H](Cc3c[nH]cn3)NC(=O)[C@H]3CCCN3C(=O)CNC1=O)C(=O)N[C@@H](Cc1ccc(O)cc1)C(=O)N[C@@H](CCCNC(N)=O)C(=O)N[C@@H](CCCCN)C(=O)N1CCC[C@@H]1C(=O)N1CCC[C@H]1C(=O)N[C@@H](Cc1ccc(O)cc1)C(=O)N[C@@H](CCCNC(=N)N)C(=O)N[C@@H](CCCNC(N)=O)C(=O)N2) [Example 137],1.28 nM,–
cyclo(YR[Cit]CRG[dP][IPegDab]RWCY[Cit]K[dP]P) (disulfide 4-11; SMILES COCCOCCOCC(=O)NCC[C@@H]1NC(=O)[C@H]2CCCN2C(=O)CNC(=O)[C@H](CCCNC(=N)N)NC(=O)[C@@H]2CSSC[C@H](NC(=O)[C@H](Cc3c[nH]c4ccccc34)NC(=O)[C@H](CCCNC(=N)N)NC1=O)C(=O)N[C@@H](Cc1ccc(O)cc1)C(=O)N[C@@H](CCCNC(N)=O)C(=O)N[C@@H](CCCCN)C(=O)N1CCC[C@@H]1C(=O)N1CCC[C@H]1C(=O)N[C@@H](Cc1ccc(O)cc1)C(=O)N[C@@H](CCCNC(=N)N)C(=O)N[C@@H](CCCNC(N)=O)C(=O)N2) [Example 142],96.9 nM,–
cyclo(YR[Cit]FRFPRR[2Nal]VY[Cit]K[dP]P) (SMILES CC(C)[C@@H]1NC(=O)[C@H](Cc2ccc3ccccc3c2)NC(=O)[C@H](CCCNC(=N)N)NC(=O)[C@H](CCCNC(=N)N)NC(=O)[C@@H]2CCCN2C(=O)[C@H](Cc2ccccc2)NC(=O)[C@H](CCCNC(=N)N)NC(=O)[C@H](Cc2ccccc2)NC(=O)[C@H](CCCNC(N)=O)NC(=O)[C@H](CCCNC(=N)N)NC(=O)[C@H](Cc2ccc(O)cc2)NC(=O)[C@@H]2CCCN2C(=O)[C@H]2CCCN2C(=O)[C@H](CCCCN)NC(=O)[C@H](CCCNC(N)=O)NC(=O)[C@H](Cc2ccc(O)cc2)NC1=O) [Example 24],–,850 nM
cyclo(YR[Cit]VR[dR]R[2Nal]FY[Cit]K[dP]P) (SMILES CC(C)[C@@H]1NC(=O)[C@H](CCCNC(N)=O)NC(=O)[C@H](CCCNC(=N)N)NC(=O)[C@H](Cc2ccc(O)cc2)NC(=O)[C@@H]2CCCN2C(=O)[C@H]2CCCN2C(=O)[C@H](CCCCN)NC(=O)[C@H](CCCNC(N)=O)NC(=O)[C@H](Cc2ccc(O)cc2)NC(=O)[C@H](Cc2ccccc2)NC(=O)[C@H](Cc2ccc3ccccc3c2)NC(=O)[C@H](CCCNC(=N)N)NC(=O)[C@@H](CCCNC(=N)N)NC(=O)[C@H](CCCNC(=N)N)NC1=O) [Example 1],–,2280 nM
cyclo(YR[Cit]CRG[dP][Dab]R[2Nal]CY[Cit]K[dP]P) (disulfide 4-11; SMILES N=C(N)NCCC[C@@H]1NC(=O)[C@@H]2CSSC[C@H](NC(=O)[C@H](Cc3ccc4ccccc4c3)NC(=O)[C@H](CCCNC(=N)N)NC(=O)[C@H](CCN)NC(=O)[C@H]3CCCN3C(=O)CNC1=O)C(=O)N[C@@H](Cc1ccc(O)cc1)C(=O)N[C@@H](CCCNC(N)=O)C(=O)N[C@@H](CCCCN)C(=O)N1CCC[C@@H]1C(=O)N1CCC[C@H]1C(=O)N[C@@H](Cc1ccc(O)cc1)C(=O)N[C@@H](CCCNC(=N)N)C(=O)N[C@@H](CCCNC(N)=O)C(=O)N2) [Example 135],4.7 nM,–
cyclo(YR[Cit]CRA[dP]RRWCY[Cit]K[dP]P) (disulfide 4-11; SMILES C[C@@H]1NC(=O)[C@H](CCCNC(=N)N)NC(=O)[C@@H]2CSSC[C@H](NC(=O)[C@H](Cc3c[nH]c4ccccc34)NC(=O)[C@H](CCCNC(=N)N)NC(=O)[C@H](CCCNC(=N)N)NC(=O)[C@H]3CCCN3C1=O)C(=O)N[C@@H](Cc1ccc(O)cc1)C(=O)N[C@@H](CCCNC(N)=O)C(=O)N[C@@H](CCCCN)C(=O)N1CCC[C@@H]1C(=O)N1CCC[C@H]1C(=O)N[C@@H](Cc1ccc(O)cc1)C(=O)N[C@@H](CCCNC(=N)N)C(=O)N[C@@H](CCCNC(N)=O)C(=O)N2) [Example 143],0.9 nM,–
cyclo(LR[Cit]CRG[dP]RR[2Nal]CYQK[dP]P) (disulfide 4-11; SMILES CC(C)C[C@@H]1NC(=O)[C@@H]2CCCN2C(=O)[C@H]2CCCN2C(=O)[C@H](CCCCN)NC(=O)[C@H](CCC(N)=O)NC(=O)[C@H](Cc2ccc(O)cc2)NC(=O)[C@@H]2CSSC[C@H](NC(=O)[C@H](CCCNC(N)=O)NC(=O)[C@H](CCCNC(=N)N)NC1=O)C(=O)N[C@@H](CCCNC(=N)N)C(=O)NCC(=O)N1CCC[C@@H]1C(=O)N[C@@H](CCCNC(=N)N)C(=O)N[C@@H](CCCNC(=N)N)C(=O)N[C@@H](Cc1ccc3ccccc3c1)C(=O)N2) [Example 144],0.18 nM,–
